Results on 11 molecules are retold here after US20260347476 (published 2026).

Experiment [1] has as its target T1, IL-15 (human, UniProt P40933). Briefly: SPR, anti-human Fc capture. (Surface plasmon resonance follows binding to a sensor surface in real time, without labels.)
The target of experiment [2] is T1, IL-15. The experiment is described as follows: SPR, PD1 capture.
Experiment [3] concerns the target T1, IL-15. The experiment is described as follows: SPR, PD1 capture, additional production.
Experiment [4] has as its target T1, IL-15. The experiment is described as follows: SPR, anti-human Fc capture, additional production.
Experiment [5] deals with T2, IL-15Rbetagamma heterodimer (human, UniProt P14784).
T2 chain 1: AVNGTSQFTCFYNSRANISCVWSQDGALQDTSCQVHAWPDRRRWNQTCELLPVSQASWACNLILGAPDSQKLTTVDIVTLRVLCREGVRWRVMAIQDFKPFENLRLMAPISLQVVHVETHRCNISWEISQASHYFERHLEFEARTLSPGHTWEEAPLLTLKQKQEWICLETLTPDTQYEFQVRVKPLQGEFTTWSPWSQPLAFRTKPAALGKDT
T2 chain 2: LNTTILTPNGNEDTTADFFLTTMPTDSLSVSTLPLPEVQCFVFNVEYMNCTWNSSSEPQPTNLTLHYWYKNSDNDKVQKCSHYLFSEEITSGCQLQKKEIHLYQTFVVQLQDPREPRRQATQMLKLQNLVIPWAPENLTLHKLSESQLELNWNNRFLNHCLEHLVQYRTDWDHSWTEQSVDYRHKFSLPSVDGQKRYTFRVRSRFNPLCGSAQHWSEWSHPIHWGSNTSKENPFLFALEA
Briefly: SPR, anti-human Fc capture.

Experiment [6] addresses T2, IL-15Rbetagamma heterodimer. The experiment is described as follows: SPR, anti-human Fc capture, IL-15 and PD1 bound.
Experiment [7] has the same target. The experiment is described as follows: SPR, PD1 capture, additional production.
For experiment [8] the target is unchanged. The experiment is described as follows: SPR, PD1 capture.
Experiment [9] has as its target T3, PD-1 (human, UniProt Q15116). The experiment is described as follows: SPR, anti-human Fc capture, additional production.
The target of experiment [10] is T3, PD-1. Briefly: SPR, PD1 surface.
The target in experiment [11] is T3, PD-1. Briefly: SPR, protein A capture.
In experiment [12] the target is T3, PD-1. The experiment is described as follows: SPR, protein A capture. This is another data set of the same source.

The term Kd denotes the constant that tells how readily two partners part at equilibrium. A lower Kd goes with tighter binding.

T3 sequence (Q15116 25-167): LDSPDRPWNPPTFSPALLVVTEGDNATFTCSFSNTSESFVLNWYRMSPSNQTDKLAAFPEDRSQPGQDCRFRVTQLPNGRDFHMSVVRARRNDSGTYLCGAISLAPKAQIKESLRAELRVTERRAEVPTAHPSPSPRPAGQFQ
T1 sequence (P40933 49-162): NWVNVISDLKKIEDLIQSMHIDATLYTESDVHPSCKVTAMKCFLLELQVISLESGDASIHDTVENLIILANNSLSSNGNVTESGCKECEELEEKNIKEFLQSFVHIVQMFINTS

B1: RV30 IL-15 arm (antibody, V domains shown)
VH: QVQLVQSGAEVKKPGASVKVSCKASGYSFSSFGISWVRQAPGQGLEWLGWISAFNGYTKYAQKFQDRVTMTTDTSTSTAYMELRSLRSDDTAVYYCARDPAAWPLQQSLAWFDPWGQGTMVTVSS
VL: QSVLTQPPSASGTPGQRVTISCSGSTSNLKRNYVYWYQQLPGTAPKLLIYRDRRRPSGVPDRFSGSKSGTSASLAISGLRSEDEADYYCAWYDRELSEWVFGGGTKLTVL
As for B1, the equilibrium dissociation constant (Kd) with IL-15 [1] came to 77 pM; with IL-15 [2] it was 452 pM; with IL-15 [3], 850 pM; in the experiment with IL-15 [4], 66.4 pM.

B2: RV30:IL-15 complex (antibody)
chain 1: QVQLVQSGAEVKKPGASVKVSCKASGYSFSSFGISWVRQAPGQGLEWLGWISAFNGYTKYAQKFQDRVTMTTDTSTSTAYMELRSLRSDDTAVYYCARDPAAWPLQQSLAWFDPWGQGTMVTVSS
chain 2: QSVLTQPPSASGTPGQRVTISCSGSTSNLKRNYVYWYQQLPGTAPKLLIYRDRRRPSGVPDRFSGSKSGTSASLAISGLRSEDEADYYCAWYDRELSEWVFGGGTKLTVL
chain 3: not shown
On to B2, for which the Kd in [5] came out at 849 pM; in experiment [6], 706 pM; in experiment [7] it was 665 pM; in [8], 828 pM.

B3: RV37:IL-15 complex (antibody)
chain 1: QVQLVQSGAEVKKPGASVKVSCKASGYSFSSFGISWVRQAPGQGLEWLGWISAFNGYTKYAQKFQDRVTMTTDTSTSTAYMELRSLRSDDTAVYYCARDPAAWPLQQSLAWFDPWGQGTMVTVSS
chain 2: QSVLTQPPSASGTPGQRVTISCSGSTSNLKRNYVYWYQQLPGTAPKLLIYRDRRRPSGVPDRFSGSKSGTSASLAISGLRSEDEADYYCAWYDRELSEWVFGGGTKLTVL
chain 3: not shown
Take B3: the dissociation constant Kd in [5] came out at 986 pM; in [6], 848 pM; in experiment [8], 693 pM.

B4: RV31 IL-15 arm (antibody, V domains shown)
VH: QVQLVQSGAEVKKPGASVKVSCKASGYSFSSFGISWVRQAPGQGLEWLGWISAFNGYTKYAQKFQDRVTMTTDTSTSTAYMELRSLRSDDTAVYYCARDPAAWPLQQSLAWFDPWGQGTMVTVSS
VL: QSVLTQPPSASGTPGQRVTISCSGSTSNLKRNYVYWYQQLPGTAPKLLIYRDRRRPSGVPDRFSGSKSGTSASLAISGLRSEDEADYYCAWYDRELSEWVFGGGTKLTVL
Regarding B4, the Kd with IL-15 [1] came out at 180 pM; with IL-15 [2], 717 pM.

B5: RV32 IL-15 arm (antibody, V domains shown)
VH: QVQLVQSGAEVKKPGASVKVSCKASGYSFSSFGISWVRQAPGQGLEWLGWISAFNGYTKYAQKFQDRVTMTTDTSTSTAYMELRSLRSDDTAVYYCARDPAAWPLQQSLAWFDPWGQGTMVTVSS
VL: QSVLTQPPSASGTPGQRVTISCSGSTSNLKRNYVYWYQQLPGTAPKLLIYRDRRRPSGVPDRFSGSKSGTSASLAISGLRSEDEADYYCAWYDRELSEWVFGGGTKLTVL
On to B5, for which the Kd in the experiment with IL-15 [1] was 108 pM; with IL-15 [2] it was 352 pM.

B6: RV36 IL-15 arm (antibody, V domains shown)
VH: QVQLVQSGAEVKKPGASVKVSCKASGYSFSSFGISWVRQAPGQGLEWLGWISAFNGYTKYAQKFQDRVTMTTDTSTSTAYMELRSLRSDDTAVYYCARDPAAWPLQQSLAWFDPWGQGTMVTVSS
VL: QSVLTQPPSASGTPGQRVTISCSGSTSNLKRNYVYWYQQLPGTAPKLLIYRDRRRPSGVPDRFSGSKSGTSASLAISGLRSEDEADYYCAWYDRELSEWVFGGGTKLTVL
Regarding B6, the equilibrium dissociation constant (Kd) was 116 pM with IL-15 [1] and 111 pM in the experiment with IL-15 [2].

B7: RV20 IL-15 arm (antibody, V domains shown)
VH: QVQLVQSGAEVKKPGASVKVSCKASGYSFSSFGISWVRQAPGQGLEWLGWISAFNGYTKYAQKFQDRVTMTTDTSTSTAYMELRSLRSDDTAVYYCARDPAAWPLQQSLAWFDPWGQGTMVTVSS
VL: QSVLTQPPSASGTPGQRVTISCSGSTSNLKRNYVYWYQQLPGTAPKLLIYRDRRRPSGVPDRFSGSKSGTSASLAISGLRSEDEADYYCAWYDRELSEWVFGGGTKLTVL
For the molecule B7, the values for the dissociation constant Kd in the experiment with IL-15 [1], with IL-15 [3] and in the experiment with IL-15 [4] were 51.9 pM, 169 pM and 53.1 pM, respectively.

B8: RV20:IL-15 complex (antibody)
chain 1: QVQLVQSGAEVKKPGASVKVSCKASGYSFSSFGISWVRQAPGQGLEWLGWISAFNGYTKYAQKFQDRVTMTTDTSTSTAYMELRSLRSDDTAVYYCARDPAAWPLQQSLAWFDPWGQGTMVTVSS
chain 2: QSVLTQPPSASGTPGQRVTISCSGSTSNLKRNYVYWYQQLPGTAPKLLIYRDRRRPSGVPDRFSGSKSGTSASLAISGLRSEDEADYYCAWYDRELSEWVFGGGTKLTVL
chain 3: not shown
As to B8, the dissociation constant Kd in experiment [5] was found to be 852 pM; in experiment [7] it was 726 pM; in [8], 667 pM.

B9: RV20 PD-1 arm (antibody, V domains shown)
VH: QVQLVQSGVEVKKPGASVKVSCKASGYTFTNYYMYWVRQAPGQCLEWMGGINPSNGGTNFNEKFKNRVTLTTDSSTTTAYMELKSLQFDDTAVYYCARRDYRFDMGFDYWGQGTTVTVSS
VL: EIVLTQSPATLSLSPGERATLSCRASKGVSTSGYSYLHWYQQKPGQAPRLLIYLASYLESGVPARFSGSGSGTDFTLTISSLEPEDFAVYYCQHSRDLPLTFGCGTKVEIK
Regarding B9, the figures for the dissociation constant (Kd) with PD-1 [9], with PD-1 [10] and with PD-1 [11] were 3990 pM, 17200 pM and 269000 pM, respectively.

B10: RV19 PD-1 arm (antibody, V domains shown)
VH: QVQLVQSGVEVKKPGASVKVSCKASGYTFTNYYMYWVRQAPGQCLEWMGGINPSNGGTNFNEKFKNRVTLTTDSSTTTAYMELKSLQFDDTAVYYCARRDYRFDMGFDYWGQGTTVTVSS
VL: EIVLTQSPATLSLSPGERATLSCRASKGVSTSGYSYLHWYQQKPGQAPRLLIYLASYLESGVPARFSGSGSGTDFTLTISSLEPEDFAVYYCQHSRDLPLTFGCGTKVEI
With B10, in the experiment with PD-1 [12], the binding result is listed as “no binding”.

B11: RV26 PD-1 arm (antibody, V domains shown)
VH: QVQLVQSGVEVKKPGASVKVSCKASGYTFTNYYMYWVRQAPGQCLEWMGGINPSNGGTNFNEKFKNRVTLTTDSSTTTAYMELKSLQFDDTAVYYCARRDYRFDMGFDYWGQGTTVTVSS
VL: EIVLTQSPATLSLSPGERATLSCRASKGVSTSGYSYLHWYQQKPGQAPRLLIYLASYLESGVPARFSGSGSGTDFTLTISSLEPEDFAVYYCQHSRDLPLTFGCGTKVEIK
Molecule B11 yielded a Kd in the experiment with PD-1 [10] of 2190 pM.
